B1: Twister Ribozyme (parent)
chain: AACACUGCCAAUGCCGGUCCCAAGCCCGGAUAAAAGUGGAGGGGGCGG

The data set covers variants of B1. The experiment in a line: self-cleavage, relative activity (ratio to wild type); higher = more cleavage; co-transcriptional.
G16C A34G: the self-cleavage worked out at 0.298.

Turning to G17A A33G, the self-cleavage stood at 0.451.

For the variant G16U G28A, the self-cleavage was 0.641.

On to G16U G28C, for which the self-cleavage was determined as 1.02.

Regarding G16A, the self-cleavage was found to be 1.03.

For the variant G16C, the self-cleavage was determined as 0.663.

Regarding G16U, the self-cleavage was determined as 1.07.

On to G16U G47U, for which the self-cleavage came to 0.653.

Take G16U G47A: the self-cleavage stood at 0.378.

With G17U G38C, the self-cleavage was found to be 0.203.

Regarding G17U G38A, the self-cleavage amounted to 0.206.

Turning to G17C G44A, the self-cleavage came to 0.109.

Take G17C G44C: the self-cleavage is 0.122.

G16U U31G: the self-cleavage is 1.04.

Take G17A G41C: the self-cleavage was 0.164.

As for G16A G28C, the self-cleavage was determined as 0.489.

G16A G28A: the self-cleavage stood at 0.48.

G16U C46G: the self-cleavage is 0.963.

As for C15U C46A, the self-cleavage amounted to 0.944.

As to C15U C46G, the self-cleavage was determined as 0.887.

On to G17C C26U, for which the self-cleavage was 0.17.

Regarding G17C C26A, the self-cleavage was 0.286.

Take G16C G39A: the self-cleavage is 0.28.

Take G16C G39C: the self-cleavage was 0.119.

As to G17U C19A, the self-cleavage is 0.0777.

As for G16A A33C, the self-cleavage was determined as 0.799.

As for G16A A33U, the self-cleavage was determined as 0.858.

On to G16C U37C, for which the self-cleavage came out at 0.0928.

For the variant G16C U37A, the self-cleavage is 0.165.

For the variant G17U C21U, the self-cleavage came out at 0.0901.

For the variant G16A G48C, the self-cleavage stood at 1.08.

Take G16A G48U: the self-cleavage was determined as 0.917.

As for G16A G48A, the self-cleavage came to 0.979.

For G17C C46A, the self-cleavage is 0.107.

Turning to G16C A32C, the self-cleavage stood at 0.536.

As to G16C A32U, the self-cleavage came to 0.456.

Take G16C A32G: the self-cleavage was 0.518.

As to G17A G24A, the self-cleavage is 0.118.

On to G17U A34C, for which the self-cleavage came to 0.0829.

For the variant G17U A34G, the self-cleavage was found to be 0.182.

As for G16A C20G, the self-cleavage was 0.158.

With G16C G29U, the self-cleavage worked out at 0.194.

Consider G16A G42C, for which the self-cleavage turned out to be 0.241.

On to G16A G47U, for which the self-cleavage stood at 0.487.

For the variant G16C A40G, the self-cleavage is 0.135.

Turning to U18A, the self-cleavage was determined as 0.667.

For the variant C15U G48U, the self-cleavage came to 0.987.

As to C15U G48A, the self-cleavage is 0.765.

For the variant G17U U37G, the self-cleavage turned out to be 0.12.

As to G17U U37A, the self-cleavage turned out to be 0.092.

Turning to G17C G29U, the self-cleavage came out at 0.0973.

With G17C G29A, the self-cleavage was 0.0678.

As to G16A G45A, the self-cleavage was 0.891.

G16C C27U: the self-cleavage stood at 0.854.

G16C G36C: the self-cleavage came out at 0.0717.

Regarding G16C G36U, the self-cleavage is 0.113.

Consider G16A G43U, for which the self-cleavage is 0.321.

Take G16A G43C: the self-cleavage was 0.181.

With G17U G42U, the self-cleavage came out at 0.126.

Take G17U G45A: the self-cleavage came to 0.148.

Turning to C15U G41C, the self-cleavage stood at 0.209.

For the variant U18A A22C, the self-cleavage was 0.485.

Consider U18A A22G, for which the self-cleavage was determined as 0.0469.

On to G17A U31A, for which the self-cleavage worked out at 0.715.

Consider G17A U31C, for which the self-cleavage is 0.746.

On to G16U G45C, for which the self-cleavage is 0.554.

On to G16U G45U, for which the self-cleavage was found to be 0.819.

As for G17U C20A, the self-cleavage was determined as 0.0851.

As to C15U C21G, the self-cleavage was 0.0408.

Turning to G17C A32U, the self-cleavage is 0.109.

Consider G16U G42A, for which the self-cleavage stood at 0.26.

With G16U G42U, the self-cleavage was 0.166.

Turning to G17C G43C, the self-cleavage was determined as 0.0789.

G17U A33G: the self-cleavage was found to be 0.317.

Take G17U A33U: the self-cleavage was determined as 0.257.

With G17U A33C, the self-cleavage turned out to be 0.199.

In the case of G16U U37C, the self-cleavage was determined as 0.261.

Take G16U U18G: the self-cleavage was found to be 0.0727.

Take G16U U18A: the self-cleavage was 0.605.

Take G17C G28U: the self-cleavage worked out at 0.0606.

Regarding G17C G28C, the self-cleavage amounted to 0.0667.

For the variant G17C G28A, the self-cleavage was 0.069.

As for C15U G16U, the self-cleavage came out at 0.31.

Take C15U G16A: the self-cleavage is 0.457.

As for C15U G16C, the self-cleavage is 0.464.

For G16A A40U, the self-cleavage was 0.125.

Take G16A A40G: the self-cleavage turned out to be 0.17.

As to G17U C25U, the self-cleavage came to 0.204.

As to G16U A32G, the self-cleavage is 1.02.

Consider G16U A32U, for which the self-cleavage is 1.

For the variant G16A U37G, the self-cleavage is 0.195.

Take G17U G29U: the self-cleavage was found to be 0.158.

For the variant G17U G29A, the self-cleavage worked out at 0.118.

As to G17U G29C, the self-cleavage was 0.0894.

As for G17A C21G, the self-cleavage is 0.073.

Turning to G17C G36A, the self-cleavage was determined as 0.0801.

For G16A G17U, the self-cleavage worked out at 0.232.

Take G16A G41U: the self-cleavage was found to be 0.396.

On to G16A G41C, for which the self-cleavage turned out to be 0.167.

Take G17C A33U: the self-cleavage was determined as 0.0842.

Consider G17C A33G, for which the self-cleavage was 0.093.

As for G16A G29A, the self-cleavage was determined as 0.639.

Turning to C15U C26A, the self-cleavage was 0.126.

With G16C A22C, the self-cleavage came to 0.198.

Turning to G16C A22G, the self-cleavage stood at 0.0711.

Take G17U G43C: the self-cleavage was 0.0878.

As for G17U G43A, the self-cleavage was 0.13.

For the variant C15U G17U, the self-cleavage was 0.204.

Consider C15U G17A, for which the self-cleavage came to 0.204.

Turning to G16A A30U, the self-cleavage is 1.04.

Regarding C15U U18A, the self-cleavage was 0.379.

On to C15U G36A, for which the self-cleavage worked out at 0.454.

As to C15U G36U, the self-cleavage is 0.203.

With G17C G48C, the self-cleavage was found to be 0.152.

As to G17C G42U, the self-cleavage turned out to be 0.0737.

As for G17U C46G, the self-cleavage is 0.301.

For G16C G38C, the self-cleavage amounted to 0.572.

Take C15U G42U: the self-cleavage turned out to be 0.235.

With C15U G42C, the self-cleavage worked out at 0.296.

For the variant C15U G42A, the self-cleavage is 0.204.

Regarding C15U U31C, the self-cleavage was 0.923.

For the variant C15U U31G, the self-cleavage is 0.782.

In the case of G17A A40C, the self-cleavage came to 0.105.

On to G17A A40U, for which the self-cleavage came to 0.117.

For G17A A40G, the self-cleavage came out at 0.171.

On to G16U C21G, for which the self-cleavage came out at 0.101.

Consider G16U C21U, for which the self-cleavage amounted to 0.105.

On to G16U C21A, for which the self-cleavage turned out to be 0.137.

Take G17C G38U: the self-cleavage worked out at 0.073.

For G16U A22G, the self-cleavage amounted to 0.21.

Take G16U A22C: the self-cleavage is 0.925.

In the case of G16U A22U, the self-cleavage is 0.759.

C15G U37C: the self-cleavage worked out at 0.114.

As for C15G U37A, the self-cleavage came to 0.0636.

With C15G U37G, the self-cleavage amounted to 0.143.

On to G16U G17C, for which the self-cleavage was 0.105.

As for G17U G48U, the self-cleavage is 0.316.

Turning to G17U G48A, the self-cleavage was determined as 0.316.

G17U G48C: the self-cleavage was found to be 0.467.

Regarding G16U G43A, the self-cleavage was found to be 0.203.

For G16U G43C, the self-cleavage stood at 0.183.

Take G16U G43U: the self-cleavage turned out to be 0.313.

With G17A C20U, the self-cleavage is 0.373.

With G16C G43A, the self-cleavage was 0.148.

On to G17U G39A, for which the self-cleavage stood at 0.119.

Turning to C15U A30U, the self-cleavage is 0.925.

Take C15U A30C: the self-cleavage is 0.802.

Take C15U A30G: the self-cleavage was determined as 0.759.

As for G17U C26G, the self-cleavage was 0.637.

As for G17U C26U, the self-cleavage was 0.458.

Turning to C15U A33G, the self-cleavage amounted to 0.802.

Turning to C15U A33C, the self-cleavage came to 0.839.

Take C15U A33U: the self-cleavage was 1.01.

As to C15U G29U, the self-cleavage worked out at 0.652.

Consider C15U G29C, for which the self-cleavage is 0.194.

C15U G29A: the self-cleavage was found to be 0.927.

With G17A G28U, the self-cleavage is 0.258.

Regarding C15U A34C, the self-cleavage was 0.205.

Take C15U A34U: the self-cleavage stood at 0.68.

Turning to G17U A22U, the self-cleavage turned out to be 0.161.

Turning to G17U A22C, the self-cleavage came to 0.406.

In the case of G17A C27U, the self-cleavage turned out to be 0.403.

Consider G17A C27G, for which the self-cleavage was determined as 0.243.

Turning to C15U G38C, the self-cleavage was 0.801.

Turning to G16A C46A, the self-cleavage was 0.994.

As for G16A C46U, the self-cleavage was found to be 0.895.

G17C G45A: the self-cleavage was 0.132.

Values taken from the RNAGym collection of RNA variant scans (doi:10.7554/elife.80360).
